How the values were obtained:
r murine EphA4 [1] = target: T1, r murine EphA4 (mouse, UniProt Q03137); assay: activity ELISA, Fab on coated antigen
T1 construct: recombinant Fc fusion (R&D Systems); also called rmuEphA4-Fc; mEphA4
Description: (§1) More precisely, Nunc Maxisorp plates were coated with the following rEphA proteins: rhuEphAl-Fc, rmuEphA2-Fc, rmuEphA3-Fc, rmuEphA4-Fc, rratEphA5-Fc, rmuEphA6-Fc, rmuEphA7-Fc, rEphA8; all at 0.5 μg/well (all R&D Systems) rhuEphA2-Fc; 0.5 μg/well, and rhuEphA4-His; 0.1 μg/well (both produced at MedImmune, Inc.). Plates were blocked with 3% BSA+0.1% Tween20 for 2 h. […] Incubation with a goat anti-human kappa horseradish peroxydase (HRP) conjugate then followed. HRP activity was detected with TMB substrate and the reaction quenched with 0.2 M H₂SO₄. Plates were read at 450 nm. Data was analyzed by normalizing Fab concentrations to the corresponding activity data (see FIGS. 10B-10H).

r murine EphA7 [2] = target: T2, r murine EphA7 (mouse, UniProt Q61772); assay: activity ELISA, Fab on coated antigen
T2 construct: recombinant Fc fusion (R&D Systems); also called rmuEphA7-Fc; mEphA7
T2 sequence (receptor-Fc fusion, looked up): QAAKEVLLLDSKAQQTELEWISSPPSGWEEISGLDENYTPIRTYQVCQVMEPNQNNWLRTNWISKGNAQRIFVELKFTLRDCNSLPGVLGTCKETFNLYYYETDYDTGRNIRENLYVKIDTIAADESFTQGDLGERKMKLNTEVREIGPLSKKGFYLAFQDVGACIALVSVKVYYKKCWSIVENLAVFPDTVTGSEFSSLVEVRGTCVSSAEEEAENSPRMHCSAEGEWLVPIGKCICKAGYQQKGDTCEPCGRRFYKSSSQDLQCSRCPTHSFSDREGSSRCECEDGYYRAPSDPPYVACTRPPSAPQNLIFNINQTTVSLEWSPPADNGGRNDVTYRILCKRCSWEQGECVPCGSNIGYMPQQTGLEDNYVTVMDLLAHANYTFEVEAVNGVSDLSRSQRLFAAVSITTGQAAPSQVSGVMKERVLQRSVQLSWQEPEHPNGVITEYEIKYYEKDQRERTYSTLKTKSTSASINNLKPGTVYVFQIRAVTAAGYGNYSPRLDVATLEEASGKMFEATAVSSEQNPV
Description: as §1

r murine EphA8 [3] = target: T3, r murine EphA8 (mouse, UniProt O09127); assay: activity ELISA, Fab on coated antigen
T3 construct: recombinant (rEphA8, R&D Systems); also called rEphA8
T3 sequence (receptor, looked up): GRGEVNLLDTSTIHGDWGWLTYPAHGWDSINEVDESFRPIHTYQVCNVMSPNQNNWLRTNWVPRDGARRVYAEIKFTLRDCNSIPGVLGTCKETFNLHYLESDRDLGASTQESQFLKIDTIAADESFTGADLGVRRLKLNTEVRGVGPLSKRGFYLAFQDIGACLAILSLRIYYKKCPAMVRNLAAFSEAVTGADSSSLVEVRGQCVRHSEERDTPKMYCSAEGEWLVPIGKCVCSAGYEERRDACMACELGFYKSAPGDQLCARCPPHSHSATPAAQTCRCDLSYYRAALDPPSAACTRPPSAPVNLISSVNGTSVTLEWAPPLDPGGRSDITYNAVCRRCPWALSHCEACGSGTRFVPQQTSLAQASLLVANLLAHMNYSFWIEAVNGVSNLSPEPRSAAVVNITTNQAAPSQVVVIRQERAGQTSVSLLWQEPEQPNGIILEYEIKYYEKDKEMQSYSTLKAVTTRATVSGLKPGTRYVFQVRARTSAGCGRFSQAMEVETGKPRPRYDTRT
Description: as §1

[4] = target: T4, human EphA4 (construct not given) (human, UniProt P54764 20-547, limits assumed); assay: capture ELISA, 25 ng/well sheep anti-human Fd
T4 construct: also called EphA4 receptor
T4 sequence (P54764 20-547 limits assumed): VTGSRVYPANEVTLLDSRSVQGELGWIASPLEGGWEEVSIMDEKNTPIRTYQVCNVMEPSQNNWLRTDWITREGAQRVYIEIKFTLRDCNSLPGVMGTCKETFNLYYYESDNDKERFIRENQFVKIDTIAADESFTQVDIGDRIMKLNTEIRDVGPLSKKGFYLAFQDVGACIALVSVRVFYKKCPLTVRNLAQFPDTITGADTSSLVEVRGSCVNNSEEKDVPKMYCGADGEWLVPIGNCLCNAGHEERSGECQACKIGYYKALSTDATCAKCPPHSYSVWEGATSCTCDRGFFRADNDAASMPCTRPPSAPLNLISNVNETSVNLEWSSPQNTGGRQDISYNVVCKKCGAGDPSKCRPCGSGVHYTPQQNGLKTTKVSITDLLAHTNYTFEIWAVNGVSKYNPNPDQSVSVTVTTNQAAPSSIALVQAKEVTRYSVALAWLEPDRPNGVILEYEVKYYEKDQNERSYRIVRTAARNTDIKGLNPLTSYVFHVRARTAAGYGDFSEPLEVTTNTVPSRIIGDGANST

r murine EphA4 [5] = target: T1, r murine EphA4; assay: activity ELISA, IgG on coated antigen
Description: (§2) Secondary screening of IgG constructs of affinity optimized combinatorial variants with additional EphA receptors: With purified IgG constructs of the nine combinatorial variants, additional secondary screening assays were performed using the Activity ELISA (see above) and recombinant EphA receptor proteins. More precisely, Nunc Maxisorp plates were coated with the following rEphA proteins: rhuEphAl-Fc; 0.5 μg/well, rmuEphA2-Fc; 0.5 μg/well, rmuEphA3-Fc: 0.1 μg/well, rmuEphA4-Fc; 0.1 μg/well, rratEphA5-Fc; 0.5 μg/well, rmuEphA6-Fc; 0.5 μg/well, rmuEphA7-Fc; 0.1 μg/well, rEphA8; 0.2 μg/well (all R&D Systems), rhuEphA2-Fc; 0.5 μg/well, and rhuEphA4-His; 0.1 μg/well (both produced at MedImmune, Inc.). Plates were blocked with 3% BSA+0.1% Tween20 for 2 h. […] Incubation with a goat anti-human kappa horseradish peroxydase (HRP) conjugate then followed. HRP activity was detected with TMB substrate and the reaction quenched with 0.2 M H₂SO₄. Plates were read at 450 nm. Data was analyzed by normalizing Fab concentrations to the corresponding activity data (see FIGS. 12A-12J and 14).

r murine EphA7 [6] = target: T2, r murine EphA7; assay: activity ELISA, IgG on coated antigen
Description: as §2

mEphA4 = target: T5, mEphA4 (mouse, UniProt Q03137); assay: ELISA, receptor coated on the plate, purified IgG, anti-human kappa-HRP
T5 construct: part of an Fc fusion; also called rmuEphA4-Fc
T5 sequence (Q03137 20-547 limits assumed): as the sequence (P54764 20-547 limits assumed) above, with P59A, N121S, V124G, R250Q, S251N, T270S, K378R, N406S counted along it
Description: as §2

mEphA7 = target: T6, mEphA7 (mouse, UniProt Q61772); assay: as above
T6 construct: part of an Fc fusion; also called rmuEphA7-Fc
T6 sequence (receptor-Fc fusion, looked up): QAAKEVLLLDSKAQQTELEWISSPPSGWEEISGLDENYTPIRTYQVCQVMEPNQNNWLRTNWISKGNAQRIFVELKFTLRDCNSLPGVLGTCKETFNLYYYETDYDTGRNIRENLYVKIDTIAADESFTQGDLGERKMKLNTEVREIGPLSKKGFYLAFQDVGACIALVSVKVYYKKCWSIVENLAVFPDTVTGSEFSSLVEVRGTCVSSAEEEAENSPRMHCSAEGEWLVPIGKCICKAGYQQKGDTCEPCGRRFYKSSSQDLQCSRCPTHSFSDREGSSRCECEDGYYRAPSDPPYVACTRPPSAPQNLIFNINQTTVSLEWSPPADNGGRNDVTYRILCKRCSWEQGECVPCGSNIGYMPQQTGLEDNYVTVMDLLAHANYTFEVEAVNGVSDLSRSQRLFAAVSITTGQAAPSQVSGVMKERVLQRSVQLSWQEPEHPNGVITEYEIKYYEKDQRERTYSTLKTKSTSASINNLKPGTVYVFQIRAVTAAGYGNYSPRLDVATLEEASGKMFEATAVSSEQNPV
Description: as §2

[7] = target: T7, Human EphA4-His fusion protein (human, UniProt P54764 20-547); assay: BIAcore, IgG immobilized on the sensor chip, EphA4-his as analyte; comment on the sheet: marginal fit
T7 construct: also called rhuEphA4-His; not shown: Histidine tag
T7 sequence (P54764 20-547): as the sequence (P54764 20-547 limits assumed) above
Description: (§3) FIG. 15A-15B. […] Binding affinities were measured using the BIAcore assay. […] Variant kinetic measurements for human EphA4 and were obtained using BIAcore with immobilized variant antibodies and human EphA4-Fc and EphA4-His as analytes.

[8] = target: T8, Human EphA4-Fc fusion protein (human, UniProt P54764 20-547); assay: BIAcore, IgG immobilized on the sensor chip, EphA4-Fc as analyte; comment on the sheet: marginal kinetic fit
T8 construct: not shown: Fc portion of a human IgG1
T8 sequence (P54764 20-547): as the sequence (P54764 20-547 limits assumed) above
Description: as §3

[9] = target: T8, Human EphA4-Fc fusion protein; assay: BIAcore, IgG immobilized on the sensor chip, EphA4-Fc as analyte
Description: as §3

r murine EphA8 [10] = target: T9, r murine EphA8 (mouse, UniProt O09127); assay: Activity ELISA, receptor coated on the plate, purified IgG, anti-human kappa-HRP, OD 450 nm
T9 construct: recombinant soluble protein coated on the plate; also called mEphA8; rEphA8
T9 sequence (receptor construct, looked up): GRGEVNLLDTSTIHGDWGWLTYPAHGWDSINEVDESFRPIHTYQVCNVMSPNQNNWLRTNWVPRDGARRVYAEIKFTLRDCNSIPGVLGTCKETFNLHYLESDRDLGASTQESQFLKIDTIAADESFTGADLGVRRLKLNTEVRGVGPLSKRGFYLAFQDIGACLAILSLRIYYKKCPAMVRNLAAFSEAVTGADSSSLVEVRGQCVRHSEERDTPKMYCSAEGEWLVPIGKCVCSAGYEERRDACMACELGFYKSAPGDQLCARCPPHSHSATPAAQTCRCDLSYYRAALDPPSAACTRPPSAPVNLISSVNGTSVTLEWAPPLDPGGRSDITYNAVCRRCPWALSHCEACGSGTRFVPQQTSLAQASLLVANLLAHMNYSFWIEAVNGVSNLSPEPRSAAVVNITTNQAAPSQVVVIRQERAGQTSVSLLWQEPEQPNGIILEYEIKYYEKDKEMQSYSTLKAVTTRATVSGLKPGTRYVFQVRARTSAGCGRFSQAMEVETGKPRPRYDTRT
Description: as §2

mEph A2 = mEph A2 (mouse, UniProt Q03145); assay: ELISA
Chain of mEph A2 (Q03145 26-535 limits assumed): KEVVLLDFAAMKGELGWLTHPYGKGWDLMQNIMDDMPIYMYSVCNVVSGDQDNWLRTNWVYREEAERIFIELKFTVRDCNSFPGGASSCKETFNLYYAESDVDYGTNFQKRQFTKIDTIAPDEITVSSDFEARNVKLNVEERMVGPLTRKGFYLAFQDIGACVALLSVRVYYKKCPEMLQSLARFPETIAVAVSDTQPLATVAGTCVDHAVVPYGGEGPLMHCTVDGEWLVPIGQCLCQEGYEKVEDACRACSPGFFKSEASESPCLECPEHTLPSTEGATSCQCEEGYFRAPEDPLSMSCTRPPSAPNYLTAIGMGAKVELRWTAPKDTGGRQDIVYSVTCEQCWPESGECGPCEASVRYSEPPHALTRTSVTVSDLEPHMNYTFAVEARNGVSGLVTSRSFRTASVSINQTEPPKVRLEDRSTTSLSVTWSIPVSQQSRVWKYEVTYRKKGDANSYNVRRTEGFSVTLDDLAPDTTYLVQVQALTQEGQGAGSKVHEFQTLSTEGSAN

T1 sequence (Q03137 20-547 limits assumed): as the sequence (P54764 20-547 limits assumed) above, with P59A, N121S, V124G, R250Q, S251N, T270S, K378R, N406S counted along it

B1: 2C9 Fab (affinity optimized combinatorial variant of Fab20) (Fab, V domains shown)
VH: QVQLLQSGAEVKKPGASVKVPCKASGYTFTSRAMSWVRQAPGQGLEWMGWINTNTGNPTYAQGFTGRFVFSLDTSVSTAYLQISSLKAEDTAVYYCARVRFTVYGDGMDVWGQGTLVTVSS
VL: EIVLTQSPATLSVSPGERATLSCRASQSVSSNLAWYQQKPGQAPRLLIYGASTRPTGIPDRFSASGSGTDFTLTISRVEPEDFAVYYCQQYGPSWTFGQGTKVEIK
B1: binds (r murine EphA4 [1]); binds (r murine EphA7 [2]); binds (r murine EphA8 [3]).

B2: 11H1 Fab (single-change CDR3 heavy variant of Fab20) (Fab, V domains shown)
VH: QVQLLQSGAEVKKPGASVKVPCKASGYTFTSYAMSWVRQAPGQGLEWMGWINTNTGNPTYAQGFTGRFVFSLDTSVSTAYLQISSLKAEDTAVYYCARVRLTVYGDGMDVWGQGTLVTVSS
VL: EIVLTQSPATLSVSPGERATLSCRASQSVSSNLAWYQQKPGQAPRLLIYGASTRATGIPDRFSASGSGTDFTLTISRVEPEDFAVYYCQQYGSSWTFGQGTKVEIK
notes: also called GEA44 derivative 11H1
In the case of B2, the “fold increase in affinity over Fab20 parental background” value [4] is reported as 1.4 fold.

B3: 11G6 Fab (affinity optimized CDR3 heavy variant of Fab20) (Fab, V domains shown)
VH: QVQLLQSGAEVKKPGASVKVPCKASGYTFTSYAMSWVRQAPGQGLEWMGWINTNTGNPTYAQGFTGRFVFSLDTSVSTAYLQISSLKAEDTAVYYCARVRFTVYGDGMDVWGQGTLVTVSS
VL: EIVLTQSPATLSVSPGERATLSCRASQSVSSNLAWYQQKPGQAPRLLIYGASTRATGIPDRFSASGSGTDFTLTISRVEPEDFAVYYCQQYGSSWTFGQGTKVEIK
B3 was tested, and the “fold increase in affinity over Fab20 parental background” value [4] was 1.6 fold.

B4: 1B10 IgG1 (affinity optimized combinatorial variant of mAb GEA44 in human IgG1 format) (antibody, V domains shown)
VH: QVQLLQSGAEVKKPGASVKVPCKASGYTFTSRAMSWVRQAPGQGLEWMGWINTNTGNPTYAQGFTGRFVFSLDTSVSTAYLQISSLKAEDTAVYYCARVRFTVYGDGMDVWGQGTLVTVSS
VL: EIVLTQSPATLSVSPGERATLSCRASQSVSSNPAWYQQKPGQAPRLLIYGASTWATGIPDRFSASGSGTDFTLTISRVEPEDFAVYYCQQYGPSWTFGQGTKVEIK
B4: binds (r murine EphA4 [5]); binds (r murine EphA7 [6]); binds (mEphA4). The binding result (mEphA7) was “binds”, the Kd [7] was 1 nM and the koff [7] was 0.000602 s⁻¹. For the same binder, the kon [7] was 600000 M⁻¹ s⁻¹, the Kd [8] was 0.023 nM and the koff [8] was 5.41e-05 s⁻¹. The kon [8] was 2.33e+06 M⁻¹ s⁻¹.

B5: 2C9 IgG1 (affinity optimized combinatorial variant of mAb GEA44 in human IgG1 format) (antibody, V domains shown)
VH: QVQLLQSGAEVKKPGASVKVPCKASGYTFTSRAMSWVRQAPGQGLEWMGWINTNTGNPTYAQGFTGRFVFSLDTSVSTAYLQISSLKAEDTAVYYCARVRFTVYGDGMDVWGQGTLVTVSS
VL: EIVLTQSPATLSVSPGERATLSCRASQSVSSNLAWYQQKPGQAPRLLIYGASTRPTGIPDRFSASGSGTDFTLTISRVEPEDFAVYYCQQYGPSWTFGQGTKVEIK
With B5 the binding result (r murine EphA4 [5]) was “binds”, the binding result (r murine EphA7 [6]) was “binds” and the Kd [9] was 0.044 nM. The koff [9] was 1.91e-05 s⁻¹, the kon [9] was 434000 M⁻¹ s⁻¹ and the binding result (mEphA4) was “binds”. B5: binds (mEphA7); binds (r murine EphA8 [10]).

B6: 1D3 (antibody, V domains shown)
VH: EVQLLESGGGLVQPGGSLRLSCAASGFTFSPYDMLWVRQAPGKGLEWVSRIGSSGGYTKYADSVKGRFTISRDNSKNTLYLQMNSLRAEDTAVYYCARARSVVVSSDAFDIWGQGTMVTVSS
VL: DIQMTQSPSSVSASVGDRVTITCRASQGISKWLAWYQQKPGKAPKLLIFGASTLQSGVPSKFSGSKSGTDFTLTISSLQPEDSATYYCQQYNDYPLTFGGGTKVEIK
In the case of B6, the “ELISA O.D. value” (mEph A2) is reported as 0.316.

Reference: patent US20060121042A1 (AstraZeneca / MedImmune, published 2006)
